# Source: patent US6881557 (ARROWSMITH TECHNOLOGY LICENSING, dated 2005)
# B1: humanized anti-human CD28 (Hu.9.3) Fab fragment (Fab, V domains shown)
# VH: EVQLVQSGGGLVQPGGSLRLSCAGSGFTFSDYGVHWVRQAPGKGLEWVSAIWAGGGTNYASSVMGRFTISRDNAKNSLYLQMNSLRAEDMAVYYCARDKGYSYYYSMDYWGQGTLVTVSS
# VL: DIVMTQSPDSLAVSLGERATINCRASESVEYYVTSLMAWYQQKPGQPPKLLIYAASNVESGVPDRFSGSGSGTNFSLTISSLQAEDVAVYYCQQSRKVPYTFGQGTKLEIKR
# notes: also called humanized 9.3
# B2: hybrid Fab fragment comprised of human constant domains, mouse 9.3 heavy chain variable domain, and humanized light chain variable domain (Fab, V domains shown)
# VH: EVKLQQSGPGLVTPSQSLSITCTVSGFSLSDYGVHWVRQSPGQGLEWLGVIWAGGGTNYNSALMSRKSISKDNSKSQVFLKMNSLQADDTAVYYCARDKGYSYYYSMDYWGQGTSVTVSS
# VL: DIVMTQSPDSLAVSLGERATINCRASESVEYYVTSLMAWYQQKPGQPPKLLIYAASNVESGVPDRFSGSGSGTNFSLTISSLQAEDVAVYYCQQSRKVPYTFGQGTKLEIKR
# B3: Fab fragment comprised of mouse NGAD65 variable and constant domains (Fab, V domains shown)
# VH: QVQLQQPGAELVKPGASVKMSCKASGYRFSSYNMHWVKQTPGQGLEWIGAIYPRSGDTSYNQKFKGKATLTADKSSSTAYMQLGSLTSEDSAVYYCVRSYDYDAPFAFWGQGTLVTVSA
# VL: VLTQTPLSLPVSLGDQASISCRSSQSLEHNNGNTYLNWYLQKPGQSPQLLIYRVSNRFSGGLDRFSGSGSGTDFTLKISRVEAEDLGVYFCLQVTHVPFTFGSGTKLEIKR
# notes: also called mouse Fab; mouse NGAD65 Fab
# B4: humanized D1.3 Fab (Fab, V domains shown)
# VH: QVQLQESGPGLVKPSETLSLTCTVSGGSVSGYGVNWIRQPPGKGLEWIGMIWGDGNTDYNSSLKSRVTISVDTSKNQFSLKLSSVTAADTAVYYCARERDYRLDYWGQGTLVTVSS
# VL: AIRMTQSPFSLSASVGDRVTITCRASGNIHNYLAWYQQKPAKAPKLFIYYTTTLADGVPSRFSGSGSGTDYTLTISSLQPEDFATYYCQHFWSTPRTFGGGTKVEIKR
# notes: also called SHuD1.3; humanized D1.3 antibody
# Assays:
# CD28Ig [1] = molecular target: T1, CD28Ig (human, UniProt P10747 19-152); experiment: ELISA on CD28Ig coated plates (FIG. 11 legend)
# T1 construct: also called GD28Ig; human CD28; not shown: Ig part of CD28Ig; not described
# CD28Ig [2] = molecular target: T1, CD28Ig; experiment: ELISA, CD28Ig coated plates, detection with anti-human kappa immunoconjugate
# [3] = molecular target: T2, human glutamic acid decarboxylase 65 kilodalton isoform (human, UniProt Q05329 1-585); experiment: immunoprecipitation of 35S-methionine labelled GAD65 with Fab and Protein G-Sepharose; midpoint read visually
# T2 construct: also called GAD65; antigen
# chicken lysozyme [4] = molecular target: T3, chicken lysozyme (chicken, UniProt P00698 19-147); experiment: fluorescence quench titration; reference is the literature Kd of D1.3 IgG (4 nM)
# T3 construct: also called chicken lysozyme antigen
# chicken lysozyme [5] = molecular target: T3, chicken lysozyme; experiment: fluorescence quench titration (FIG. 7 legend); FIG. 7 legend, bound only
# chicken lysozyme [6] = molecular target: T3, chicken lysozyme; experiment: intrinsic tryptophan fluorescence quench titration, 200 nM Fab titrated with lysozyme in solution
# T3 sequence (P00698 19-147 limits assumed): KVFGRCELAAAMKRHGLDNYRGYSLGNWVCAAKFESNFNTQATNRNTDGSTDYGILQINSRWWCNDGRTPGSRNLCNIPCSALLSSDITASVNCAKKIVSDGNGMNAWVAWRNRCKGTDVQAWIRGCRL
# T2 sequence (Q05329 whole entry, canonical isoform): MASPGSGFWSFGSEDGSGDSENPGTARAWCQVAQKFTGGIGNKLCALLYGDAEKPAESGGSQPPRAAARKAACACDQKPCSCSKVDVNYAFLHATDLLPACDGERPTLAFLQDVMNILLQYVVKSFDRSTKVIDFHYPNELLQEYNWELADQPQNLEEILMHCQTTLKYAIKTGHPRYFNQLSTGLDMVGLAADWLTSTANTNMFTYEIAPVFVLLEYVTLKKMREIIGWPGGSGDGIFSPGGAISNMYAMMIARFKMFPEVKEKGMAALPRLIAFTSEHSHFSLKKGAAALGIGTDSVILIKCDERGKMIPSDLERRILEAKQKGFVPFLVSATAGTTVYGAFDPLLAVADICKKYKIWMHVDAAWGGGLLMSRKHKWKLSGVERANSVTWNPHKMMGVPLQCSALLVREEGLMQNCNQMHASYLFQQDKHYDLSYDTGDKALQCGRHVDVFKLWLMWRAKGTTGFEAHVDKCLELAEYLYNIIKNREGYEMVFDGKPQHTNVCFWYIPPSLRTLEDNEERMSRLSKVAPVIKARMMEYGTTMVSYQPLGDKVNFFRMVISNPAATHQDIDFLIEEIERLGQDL
binder,measurement,setting,value
B1,Ka,CD28Ig [1],> 1e+06 M⁻¹
same,EC50,CD28Ig [2],630 nM
B2,EC50,CD28Ig [2],30 nM
B3,EC50,[3],0.00036 nM
B4,factor by which affinity is diminished relative to the subject mouse antibody D1.3,chicken lysozyme [4],< 6 fold
same,Ka,chicken lysozyme [5],4.3e+07 M⁻¹
same,Kd,chicken lysozyme [6],23 nM
